# Laboratory results published in paper PMC9100253 (International Journal of Molecular Sciences, 2022).
# What was measured:
# [1] = target: T1, CTX-M-15 (Escherichia coli, UniProt A0A5R8T042, S73A); experiment: biochemical
# T1 construct: gene bla
# [2] = target: T2, CTX-M-15 (Escherichia coli, UniProt A0A5R8T042); experiment: inhibition of ceftiofur hydrolysis, absorbance; format: biochemical
# T2 construct: gene bla; blaCTX-M-15 in pET200 TOPO, E. coli BL21(DE3); DEAE and hydroxyapatite purification; three molecules per asymmetric unit
# [3] = system: CC1(C)S[C@@H]2[C@H](NC(=O)[C@H](N)c3ccccc3)C(=O)N2[C@H]1C(=O)O; experiment: purified protein; format: biochemical, Escherichia coli; settings: PBS pH 7.4, 10 nM enzyme, acyl-enzyme structure, covalent
# [4] = system: CO/N=C(\C(=O)N[C@@H]1C(=O)N2C(C(=O)O)=C(CS)CS[C@H]12)c1csc(N)n1; experiment: purified protein; format: biochemical, Escherichia coli; settings: PBS pH 7.4, 10 nM enzyme, acyl-enzyme structure, covalent
# [5] = system: CO/N=C(\C(=O)N[C@@H]1C(=O)N2C(C(=O)O)=C(CSC(=O)c3ccco3)CS[C@H]12)c1csc(N)n1; experiment: purified protein; format: biochemical, Escherichia coli; settings: PBS pH 7.4, 10 nM enzyme
# [6] = system: O=C(Cc1cccs1)N[C@@H]1C(=O)N2C(C(=O)O)=C(/C=C/c3ccc([N+](=O)[O-])cc3[N+](=O)[O-])CS[C@H]12; experiment: purified protein; format: biochemical, Escherichia coli; settings: PBS pH 7.4, 10 nM enzyme
molecule,measurement,setting,value
O=C(Cc1cccs1)N[C@@H]1C(=O)N2C(C(=O)O)=C(/C=C/c3ccc([N+](=O)[O-])cc3[N+](=O)[O-])CS[C@H]12 [nitrocefin],Kd,[1],71.3 µM
CO/N=C(\C(=O)N[C@@H]1C(=O)N2C(C(=O)O)=C(CSC(=O)c3ccco3)CS[C@H]12)c1csc(N)n1 [ceftiofur],Kd,[1],38.2 µM
O=C(O)[C@H]1/C(=C/CO)O[C@@H]2CC(=O)N21 [clavulanic acid],Ki,[2],0.022 ± 0.007 µM
same,Kd,[1],289 µM
CC1(C)S[C@@H]2[C@H](NC(=O)[C@H](N)c3ccccc3)C(=O)N2[C@H]1C(=O)O [ampicillin],Kd,[1],28.8 µM
CTX-M-15 (Escherichia coli O25b:H4),Km,[3],197.8 ± 13.0 µM
same,Vmax,[3],60.6 µmol/min
same,kcat,[3],102 ± 5.6 s⁻¹
same,kcat/Km,[3],520000 ± 10000 M⁻¹ s⁻¹
same,Km,[4],141.2 ± 11.2 µM
same,Vmax,[4],293 µmol/min
same,kcat,[4],490 ± 16.2 s⁻¹
same,kcat/Km,[4],3.46e+06 ± 140000 M⁻¹ s⁻¹
same,Km,[5],330.0 ± 14.1 µM
same,Vmax,[5],188 µmol/min
same,kcat,[5],314 ± 13 s⁻¹
same,kcat/Km,[5],950000 ± 10000 M⁻¹ s⁻¹
same,Km,[6],1047.0 ± 75.8 µM
same,Vmax,[6],203 µmol/min
CO/N=C(\C(=O)N[C@@H]1C(=O)N2C(C(=O)O)=C(CS)CS[C@H]12)c1csc(N)n1 [desfuroylceftiofur],Kd,[1],10.7 µM
